This is an account of results in patent US20230220031A1 (Stanford University, published 2023).

Test [1] addresses T1, human IL-12Rβ1 on human T cells and NK cells (human, UniProt P42701 24-662).
T1 construct: whole, on cells
In words: flow cytometry, 200 nM human p40 tetramer (streptavidin-AF647) against streptavidin alone, human PBMC: NK cells and CD8+ T cells ex vivo and CD8+ T cell blasts. (In general: A flow cytometer gives signals particle by particle.)

In test [2] the target is T2, human IL-12Rβ1 (soluble, SPR analyte) (UniProt P42701 24-545, limits assumed).
T2 construct: also called IL-12 receptor beta 1
Kind of test: SPR, IL-12Rβ1 over immobilized IL-12p40, steady state affinity model. A general note: In SPR one partner is held on a chip, and binding of the other changes the refractive index at the surface.

B1: human p40 tetramer (biotinylated human IL-12p40 on streptavidin-AF647) (ligand)
chain: IWELKKDVYVVELDWYPDAPGEMVVLTCDTPEEDGITWTLDQSSEVLGSGKTLTIQVKEFGDAGQYTCHKGGEVLSHSLLLLHKKEDGIWSTDILKDQKEPKNKTFLRCEAKNYSGRFTCWWLTTISTDLTFSVKSSRGSSDPQGVTCGAATLSAERVRGDNKEYEYSVECQEDSACPAAEESLPIEVMVDAVHKLKYENYTSSFFIRDIIKPDPPKNLQLKPLKNSRQVEVSWEYPDTWSTPHSYFSLTFCVQVQGKSKREKKDRVFTDKTSATVICRKNASISVRAQDRYYSSSWSEWASVPCSGLNDIFEAQKIEWHEHHHHHH
modifications: biotinylated
notes: also called human p40 tetramers
As to B1, in test [1], the binding result is reported as “binds”.

B2: human IL-12p40 (23-328) with C-terminal AviTag and 6x His (ligand)
chain: B1 chain
notes: Immobilized partner in the SPR experiment; also called interleukin-12 subunit p40
By Kd is commonly meant the constant that tells how readily two partners part at equilibrium. A higher Kd goes with lower affinity. For B2, binding in test [2] was put at a Kd of 1.7 µM.
